{"source": "paper PMC8983440", "target": "IFN-receptor expressed by 38C13 cells (mouse (endogenous in 38C13)) (UniProt P33896)", "sequence (P33896 27-590, chain 1 of 2)": "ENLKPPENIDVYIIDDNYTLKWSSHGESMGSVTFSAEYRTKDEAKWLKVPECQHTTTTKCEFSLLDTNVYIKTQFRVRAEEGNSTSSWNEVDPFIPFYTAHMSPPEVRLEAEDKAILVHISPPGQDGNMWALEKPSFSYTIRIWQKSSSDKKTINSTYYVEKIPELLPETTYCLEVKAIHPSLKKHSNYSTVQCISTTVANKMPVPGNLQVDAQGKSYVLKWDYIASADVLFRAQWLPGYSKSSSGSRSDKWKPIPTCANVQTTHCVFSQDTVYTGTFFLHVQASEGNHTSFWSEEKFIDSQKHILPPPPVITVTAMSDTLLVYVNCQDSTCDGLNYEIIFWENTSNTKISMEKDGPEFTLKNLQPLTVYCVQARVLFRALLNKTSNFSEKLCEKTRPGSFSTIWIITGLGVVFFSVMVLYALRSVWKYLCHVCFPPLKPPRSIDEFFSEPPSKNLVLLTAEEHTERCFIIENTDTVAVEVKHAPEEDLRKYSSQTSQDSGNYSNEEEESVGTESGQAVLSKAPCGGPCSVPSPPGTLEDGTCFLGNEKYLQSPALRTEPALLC", "sequence (O35664 22-513, chain 2 of 2, further chain)": "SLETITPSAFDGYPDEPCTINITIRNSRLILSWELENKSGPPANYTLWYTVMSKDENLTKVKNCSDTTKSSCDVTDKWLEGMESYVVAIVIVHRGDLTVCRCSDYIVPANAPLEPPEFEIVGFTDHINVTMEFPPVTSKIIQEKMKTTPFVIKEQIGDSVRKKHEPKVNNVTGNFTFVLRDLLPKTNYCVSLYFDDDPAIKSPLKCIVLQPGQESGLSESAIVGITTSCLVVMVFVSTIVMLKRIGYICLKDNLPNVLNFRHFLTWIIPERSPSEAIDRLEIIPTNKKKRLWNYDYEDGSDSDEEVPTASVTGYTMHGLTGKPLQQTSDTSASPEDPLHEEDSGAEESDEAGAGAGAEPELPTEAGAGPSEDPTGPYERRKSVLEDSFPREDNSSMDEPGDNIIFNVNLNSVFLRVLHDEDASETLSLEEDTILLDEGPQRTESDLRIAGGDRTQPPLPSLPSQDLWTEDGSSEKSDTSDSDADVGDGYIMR", "experiment": "radioligand binding", "data": [{"substance": "anti-CD20 rituximab-murine IFNα1 fusion protein (from UniProt P01572 24-189)", "values": [{"measurement": "percent cell-bound activity", "value": 44.6, "unit": "%"}]}]}
